What was measured:
[1] = system: EL-4 tumour cells; experiment: EL-4 lymphoma tumour growth in mice fed experimental diets; type: in vivo, C57BL/6 mice
Source text: Mice were challenged subcutaneously with 2×10^5 EL-4 tumour cells two weeks after being placed on the diets. Tumour size as measured by two perpendicular diameters (in centimetres) was monitored until day 91, or until tumours reached 1 cm in diameter. Each point represents the mean tumour size with 95% confidence intervals for either 6 mice, or the number of mice indicated.
Groups of six mice were fed a control AIN-93G diet, diets containing either 28 g Lf+ or 120 g of milk fat (AMF) per 2.4 Kg of diet, or a diet containing a combination of both Lf and milk fat. Day 0 refers to the day the mice were placed on their diets. After 2 weeks on the diets, 2×10^5 EL-4 cells were injected into the flanks of mice. Tumour size as measured by two perpendicular diameters (in centimetres) was monitored until day 56. Each point represents the mean tumour size with 95% confidence intervals for either 6 mice, or the number of mice indicated.
Mice were challenged subcutaneously with EL-4 tumour cells two weeks after being placed on the diets. Tumour size was again measured by two perpendicular diameters (in centimetres).

[2] = system: EL-4 target cells; experiment: Anti-tumour cytolytic activity of splenocytes from diet-fed mice; type: in vivo; conditions: day 56
Protocol: Splenocytes were harvested following tumour cell injection on days specified. They were incubated at 37° C. with EL-4 target cells in graded E:T ratios in 96-well roundbottom plates. After a 4-hour incubation, 50 μl of supernatant was collected, and lysis was measured using the Cyto Tox 96 Assay Kit (Promega, Madison, Wis., USA). Background controls for non-specific target and effector cell lysis were included. After background subtraction, percentage of cell lysis was calculated using the formula: 100×(experimental spontaneous effector-spontaneous target/maximum target-spontaneous target).
Splenocytes were harvested from the mice described in Example 4 at day 56 and tested for their cytolytic activity against EL-4 target cells. […] The anti-tumour cytolytic activity was further increased by 86% (P<0.001) for mice fed the combination of Lf+ and milk fat compared to controls.

[3] = system: EL-4 tumours; experiment: Tumour apoptosis (TUNEL / annexin-V-fluos) in EL-4 tumour sections; type: in vivo, mice; conditions: day 56
Protocol: Tumours were excised and immediately frozen in dry ice, and stored at −70° C. for later in situ detection of apoptotic cells in tumours. Frozen serial sections of 6-μm thickness were fixed with paraformaldehyde solution (4% in PBS, pH 7.4), and permeabilized with a solution containing 0.1% Triton X-100 and 0.1% sodium citrate. They were incubated with 20 μl TUNEL reagent (In Situ apoptosis detection kit from Boehringer Mannheim, Germany) for 60 min at 37° C., and examined by fluorescence microscopy. Adjacent sections were counter-stained with haematoxylin to count the total number of cells, or the number of apoptotic cells in ten randomly selected fields (magnification of ×40). The apototic index (AI) was calculated as the number of apoptotic cells×100/total number of nucleated cells. For detection of apoptotic cells in vitro, the numbers of apoptotic and necrotic tumour cells were measured by staining with annexin-V-fluos, TUNEL, and trypan blue. For measurement of gut apoptosis, jejunal sections were stained by the TUNEL method using a DeadEnd™ Fluorometric TUNEL System (Promega, Madison, Wis., USA). Apoptotic cells in 10 randomly selected cypts were counted, and the data expressed as apoptotic bodies per crypt. […]

[4] = system: EL-4 tumours; experiment: Tumour vascularity and blood flow (CD31, CD105, DiO7) in EL-4 tumours; type: in vivo, mice; conditions: day 56
Protocol: To determine tumour vascularity, 10-μm frozen tumour sections were fixed with acetone, rinsed with PBS, blocked with 2% BSA for 2 hr, and incubated overnight with the anti-CD31 antibody MEC13.3, or an anti-CD105 mAb. They were subsequently incubated for 30 min with secondary antibodies using the VECTASTAIN Universal Quick kit (Vector Laboratories, Burlingame, Calif., USA); and developed with Sigma FAST DAB (3,3′-diaminobenzidine tetrahydrochloride) and CoCl2 enhancer tablets (Sigma), and counterstained with hematoxylin. Stained blood vessels were counted in five or six blindly chosen random fields (0.155 mm^2) at ×40 magnification, and the mean of the highest three counts was calculated. To visualize blood vessels open to flow, DiO7 (Molecular Probes, Eugene, Oreg.) was injected into the tail vein at a concentration of 1.0 mg/Kg one minute prior to collecting tissues, as described previously (Ding et al., 2001). The concentric circles method was also used to assess vascularity.
The effects of Lf+ and milk fat on tumour blood flow and vascularity were analyzed by staining of tumour sections prepared as described in Example 5 with anti-CD31 and anti-CD105 mAbs, and by perfusion of DiO7, and respectively. […] Stained blood vessels were counted from six mice in six blindly chosen random fields.

B1: Lf+: Iron-saturated bovine lactoferrin extract (100% saturated) prepared from natural bLf (protein, UniProt P24627 20-708, looked up)
Lactotransferrin: APRKNVRWCTISQPEWFKCRRWQWRMKKLGAPSITCVRRAFALECIRAIAEKKADAVTLDGGMVFEAGRDPYKLRPVAAEIYGTKESPQTHYYAVAVVKKGSNFQLDQLQGRKSCHTGLGRSAGWIIPMGILRPYLSWTESLEPLQGAVAKFFSASCVPCIDRQAYPNLCQLCKGEGENQCACSSREPYFGYSGAFKCLQDGAGDVAFVKETTVFENLPEKADRDQYELLCLNNSRAPVDAFKECHLAQVPSHAVVARSVDGKEDLIWKLLSKAQEKFGKNKSRSFQLFGSPPGQRDLLFKDSALGFLRIPSKVDSALYLGSRYLTTLKNLRETAEEVKARYTRVVWCAVGPEEQKKCQQWSQQSGQNVTCATASTTDDCIVLVLKGEADALNLDGGYIYTAGKCGLVPVLAENRKSSKHSSLDCVLRPTEGYLAVAVVKKANEGLTWNSLKDKKSCHTAVDRTAGWNIPMGLIVNQTGSCAFDEFFSQSCAPGADPKSRLCALCAGDDQGLDKCVPNSKEKYYGYTGAFRCLAEDVGDVAFVKNDTVWENTNGESTADWAKNLNREDFRLLCLDGTRKPVTEAQSCHLAVAPNHAVVSRSDRAAHVKQVLLHQQALFGKNGKNCPDKFCLFKSETKNLLFNDNTECLAKLGGRPTYEEYLGTEYVTAIANLKKCSTSPLLEACAFLTR
modifications: iron-saturated
notes: Iron-saturated bovine lactoferrin extract (100% saturated) prepared from natural bLf
[1]; 28 g Lf+ and/or 120 g milk fat per 2.4 Kg of diet, groups of six mice, until day 56
  mice that completely rejected the tumour challenge: One of 6
[1]; 28 g Lf+ or 120 g milk fat per 2.4 Kg of diet, groups of six mice
  mice in which appearance of tumours was delayed by one week: 5 of 6
[1]; groups of five mice, per 2.4 Kg of diet: 28 g Lf+, 120 g Phospholac 600, 1.2 g sphingomyelin
  effect on tumour growth / tumorigenesis in individual mice: growth of two tumours being delayed by two weeks, and one by at least one week
[2]
  increase in anti-tumour cytolytic activity of splenocytes compared with control diet: 66%
[3]
  increase in tumour apoptosis compared to control diet: 68%
[4]
  reduction in number of CD31+ vessels in tumours compared to control diet: 84%
  reduction in tumour blood flow compared to control diet: 84%
